Data: the supplement of paper PMC10567573

B1: FAM189A2 (parent)
chain: VAAALRYLQIFATRRSCIDESQIS
B2: SLC22A15 (parent)
chain: IAQYALLGYFIRSWRTLAILVNLQ

Variants of: B1
Test: protein stability index of a GFP-peptide fusion (GPS, HEK-293T) (PSI 1-6); higher = more stable
Conditions: c terminus: a fixed tail appended
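Note: lentivirally expressed fusions sorted by FACS into six bins by GFP to DsRed ratio, PSI derived from sequencing read proportions per bin multiplied by bin number.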

Protein stability index, by site and new letter:
I10: Q 2.37 | N 2.51 | V 1.69 | H 1.7 | Y 2.65 | K 2.73 | F 1.73 | D 2.24 | R 2.55 | E 2.08 | P 2.77 | W 2.48 | G 1.87 | A 1.73 | S 2.19 | C 1.72 | M 2.68 | T 1.59
Y7: T 2.49 | E 2.41 | S 2.92 | R 1.85 | A 1.95 | G 2.02 | K 1.63 | C 2.06 | M 2.22 | P 2.04 | N 1.98 | D 1.76 | H 2.25 | F 3.33 | I 1.99 | V 2.4 | Q 2.64 | L 2.68
L5: T 1.66 | Y 3.26 | I 3.7 | R 2.94 | N 1.92 | F 2.43 | A 3.88 | M 1.46 | G 2.91 | E 1.87 | V 4.11 | H 3.09 | C 1.18 | D 2.36 | P 2.08 | S 1.41 | W 3.03 | K 1.48 | Q 2.12
D19: G 2.56 | P 1.77 | I 2.5 | A 2.45 | R 2.05 | F 1.75 | Q 1.13 | E 2.01 | N 2.04 | K 3.22 | C 3.29 | L 3.03 | M 3.73
I18: F 4.04 | K 2.7 | C 2.3 | D 2.02 | W 4.01 | Y 2.54 | A 2.58 | H 1.52 | E 3.15 | S 2.14 | Q 1.95 | G 2.2 | V 1.89 | P 2.1 | L 2.57 | N 2.27 | T 1.75
R14: G 1.88 | D 2.37 | M 1.56 | P 2.78 | E 1.12 | F 2.54 | T 2.5 | I 3.84 | H 3.33 | L 2.5 | A 1.61 | S 2.38 | Y 3.44 | N 1.5 | C 3.16 | Q 1.91 | K 1.79
C17: D 1.9 | A 1.72 | G 3.03 | S 1.74 | R 1.23 | H 1.27 | L 1.58 | Q 2.5 | T 2.17 | P 2.05 | I 2.44 | V 1.27 | E 1.71 | Y 3.8 | K 1.89 | M 2.58
R15: N 1.59 | L 1.35 | F 2.52 | S 1.99 | K 2.62 | C 2.03 | D 1.88 | E 2.13 | H 1.94 | T 2.69 | A 2.44 | V 2.81 | Q 1.67 | Y 2.55 | P 1.52 | M 1.28 | I 1.77
A2: D 2.63 | P 2.46 | C 2.64 | Y 2.15 | M 1.99 | W 3.06 | G 2.53 | Q 2.29 | N 1.27 | E 1.89 | R 2 | F 1.74 | L 2.9 | I 4.56 | K 3.28
A12: G 1.65 | V 2.09 | H 2.87 | T 1.97 | S 3.61 | Y 2.74 | M 2.18 | P 3.67 | L 2.85 | K 2.13 | F 2.03 | I 3.18 | D 1.97 | Q 2.29 | R 2.46 | C 2.17 | N 1.28
T13: R 1.51 | N 1.99 | V 2.99 | A 1.71 | H 2.75 | K 2.61 | Q 2.08 | F 2.78 | S 1.76 | D 1.52 | E 2.07 | G 1.72 | P 2.29 | M 3.45
A3: G 2.61 | E 2.34 | S 1.97 | W 3.75 | Q 1.8 | R 1.71 | H 2.27 | T 4.19 | C 2.42 | Y 3 | V 3.92 | N 2.98 | P 1.52 | I 4.72 | F 1.83
A4: D 2.19 | L 3.72 | T 1.88 | G 2.23 | H 1.89 | M 3.33 | C 2.83 | E 1.25 | N 2.83 | W 2.27 | P 3.34 | Q 2.73 | I 2.64 | S 1.88 | Y 2.02 | F 1.65 | R 2.09
F11: N 1.34 | P 2.1 | Y 2.36 | R 2.63 | G 1.74 | A 2.69 | W 2.83 | K 2.03 | H 2.04 | C 4.31
L8: Y 3.39 | G 1.34 | H 2.08 | A 2.36 | K 1.89 | Q 1.6 | I 1.98 | D 2.44 | P 1.68 | R 1.84 | E 2.04 | S 1.9 | F 2.23 | V 2.6 | T 2.02 | C 2.81 | N 2.14
V1: E 1.58 | D 1.82 | P 1.56 | N 1.89 | K 1.65 | T 3.71 | M 1.95 | Q 2.38 | Y 1.07 | R 2.21 | S 1.38 | W 1.79 | A 3.21 | G 1.67 | C 1.68 | H 2.36
Q9: M 5.39 | N 1.81 | P 2.14 | C 3.59 | A 2.72 | D 2.94 | V 2.85 | E 3.07 | W 2.67 | L 2.47 | R 2.24 | K 1.7 | T 3.26 | I 3.15
R6: E 2.75 | T 2.41 | D 1.69 | L 3.52 | C 3.52 | N 1.23 | Q 2.54 | G 1.81 | H 2.98 | Y 2.79 | V 2.96 | I 4.08 | S 1.89 | P 2.76 | M 4.04 | K 1.68
S16: V 2.01 | L 2.4 | D 1.8 | A 3.14 | I 1.5 | W 2.37 | C 1.87 | M 3.14 | E 1.79 | T 2.29 | K 2.15 | N 1.57 | G 1.41 | Q 1.79

Variants of: B2
Test: as above
Conditions: c terminus: a fixed tail appended

Protein stability index: each site, then its substitutions
Q24: R 3.17 | A 4.01 | W 2.37 | D 2.49 | M 2.6 | S 2.34 | Y 2.82 | T 3.58 | V 2.92 | N 2.07 | P 3.8 | E 3.5 | L 3.01 | I 3.51 | H 2.79 | K 3.21 | C 2.35 | F 2.7 | G 2.66
L23: Y 3.34 | P 2.52 | S 3.76 | G 3.35 | W 2.35 | I 2.5 | V 4.42 | M 4.11 | R 2.6 | N 3.06 | F 2.79 | T 3.08 | H 2.81 | K 3.75 | Q 3.66
